Measurements reported in US20040176573A1.

Columns and labels:
HLA-A11 (human) = assay: assembly assay: stabilisation of 35S-labelled HLA-A11 from TAP-deficient cell lysate, W6/32 immunoprecipitation, IEF gel; settings: remark: other sources report otherwise
HLA-B7 (human) = assay: assembly assay for peptide binding to MHC class I (HLA-B7)

Row | Binder | C50 (HLA-A11 (human)) | C50 (HLA-B7 (human))
1 | LAQCFFCFK [Sur 54-62] | 0.4 µM | 
2 | QPRAPIRPI (modifications not checked) [C6] |  | 0.1 µM
3 | RPPIFIRRL (modifications not checked) [C7] |  | 0.5 µM
